From the nanobody polyreactivity screen of Harvey et al. (2022)

assay: yeast display, Sf9 membrane polyspecificity reagent, FACS + sequencing; frameworks hold sequencing errors
Method in brief: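 Genes from sorted yeast were amplified by colony PCR, read by MiSeq 2 × 250 sequencing and filtered on CDR length. These cells carried a synthetic nanobody library in Saccharomyces cerevisiae BJ5465 and were sorted by FACS into low and high (top ~1%) gates on anti-HA and streptavidin fluorescence. Polyreactivity is labelled according to the gate of origin.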

Sequence | polyreactivity (PSR sort gate)
QVQLVESGGGLVQAGGSLRLSCAAYYAMGWYRQAPGKERELVAAISSTGRTNYADSVKGRFTISRDYAKNTVYLQMNSLKPEDTAVYYCNAGDPSGMDYWGQGTQVTVSS | low polyreactivity
QVQLVESGGGLVQAGGSLRLSCADSGFIFGNYAMGWYRQAPGKERELVAGISGSGGSTYYADSVKGRFTISRDNAKNTVYLQMNSLKPEDTAVYYCNAGWHPSQGRFEYWGQGTQVTVSS | high polyreactivity
QVQLVESGGGLVQAGGSLRLSCADSGFIFTVNAMGLYRQAPGKERELVAAITSGGNTYYADSVKGRFTISRDNAKNTVYLQMNSLKPEDAAVYYCNAVFYTWSPYGTTVRSYGYWGQGTQVTVSS | high polyreactivity
QVQLVESGGGLVQAGGSLRLSCADSGFILGANDMGWYRQAPGKERELVAAIRSSDGTTYYADSVKGRFTISRDNAKNTVYLQMNSLKPEDTAVYYCAADWRLLYDYWGQGTQVTVSS | high polyreactivity
QVQLVESGGGLVQAGGSLRLSCADSGFTFDYNAMGSYRQAPGKERELVAAISTGGSTKYADSVKGRFTISRDNAKNTVYLQMNSLKPEDTAVYYCNKQTTDRGFYDWKWSGFDYWGQGTQVTVSS | low polyreactivity
QVQLVESGGGLVQAGGSLRLSCADSGFTFGRYAMRWYRQATGKERELVAAISRGGSYTYYADSVKGRLTISRDNAQNTVFLQMNSLKPEDTAVYYCNIVIIWARFDYWRQGTQVTVSS | high polyreactivity
QVQLVESGGGLVQAGGSLRLSCADSGFTFRTYAMGWYRQAPGKEREFVAAITTYGGSTYYADSVKGRFTISRDNAKYTVYLQMNTLKPEDTAVYYCATRGRLRNYDYWGQGTQVTVSS | high polyreactivity
QVQLVESGGGLVQAGGSLRLSCADSGFTFTYYTMGWYRQAPGKERELVAAISGSGGSTYYADSVKGRFTISRDNAKYTVYLQMNSQKPEDSAVYYCAARSRWQSYRLKNHGTYKHDYWGQGTQVTVSS | high polyreactivity
QVQLVESGGGLVQAGGSLRLSCADSGFTFYRNAMGWYRQAPGKERELVAAITSTGSTNYADSVKGRFTISRDNAKNTVYLQMNSLKPEDTAVYYCIKRRFGRQGMDYWGQGTQVTVSS | low polyreactivity
QVQLVESGGGLVQAGGSLRLSCADSGGTFGNTAMGLYRQAHGKEMELVAAINRSDGGTYYADSEKCRFTISRDNAKNTVYLQMNSLKPEDTAVYYCNADDFYYDEPYDFWGQGTQVTVSS | low polyreactivity
QVQLVESGGGLVQAGGSLRLSCADSGGTFYRYARGWYRQAPGKERELVAAISRRGGSTYYADSVKGRFTISRDNAKNTVYLQMNSLKPDDTAVYYCDKDVSDSRFDYWGQGTQVTVSS | high polyreactivity
QVQLVESGGGLVQAGGSLRLSCADSGITFVRNAMGWYIHAPGKERECVAAISGSGVSTYADSVKGRFTISRDNAKNTVYLQMNILKPEDTAVYYCNTDEWYHFYHGAHKYDYWGQATQVTVSS | low polyreactivity
QVQLVESGGGLVQAGGSLRLSCADSGLILYTYAMGWYRQAPGKERELVAAIDWGDGDTYYADSVKGRFTISRDNAKNTVYLQMNSLKPEDTAVYYCAADLVGYSGYYFDEEYYWGQGTQVTVSS | high polyreactivity
QVQLVESGGGLVQAGGSLRLSCADSGNTFKGYAMGWYRQAPGKERELVAAISWSGSSTYYADSVKGRFTISRDNAKNTVYLQMNSLKPEDTAVYYCAVTYRRFYYWGQGTQVTVSS | high polyreactivity
QVQLVESGGGLVQAGGSLRLSCADSGRIFDVNDKRSYRQAPGKERELVAAITYSGTDTYYADSVKGRFTISRDNAKNTVYLQMNSLKPEDTAVYYCAAEFTGWEYIGRDYWGQGTQVTVSS | low polyreactivity
QVQLVESGGGLVQAGGSLRLSCADSGRIFGRYAMGWYRQAPGQERELVAGISARGGSTYYADSVKGRFTISRDNAKNTVYLQMNRLKPEDTAVYYCAAAGYRGGGYWGQGTQVTVSS | high polyreactivity
QVQLVESGGGLVQAGGSLRLSCADSGRIFHTYAMGWYRHAPGKERELVAAISKGGSGTYYADSVKGRFTISRDNAKNTVYLQRNSLKPEDTAVYYCAADLTYHYPRYITYEYWGQRTQVTVSS | low polyreactivity
QVQLVESGGGLVQAGGSLRLSCADSGRIIDTYAMVWYRQAPGKERELVASISRSDTSTSNADSVKGRFTISRDNAKNTVYLQMNSLKPEDTAVYYCNKDGVPVNNTKRYDYWGQGTQVTVSS | low polyreactivity
QVQLVESGGGLVQAGGSLRLSCADSGRLFYPYAMGWYTQAPGTERELVAAIRRSGVDTYYADSVKGRFTISRDNAKNTVYLQMNSLKPEDTAVYYCAADPYSFFPHYDSWGQGTQVTVSS | low polyreactivity
QVQLVESGGGLVQAGGSLRLSCADSGRTFQYYAMGWSRQSPAKERELVAAITSGGSTYYADSVKGRFTISRDNAKNTVYLQMNSLKTEDTAVYYCAADFLYYSSGGKMDYWGQGTQVTVSS | low polyreactivity
QVQLVESGGGLVQAGGSLRLSCADSGRTFRIYAMGLYIQAPGKERELVAAITRRGGSTYYADSVKGRFTISRDNAKNTVYLQMNSLKPEDTAVYYCAADLRYGYLYPYDSWGQGTQVTVSS | high polyreactivity
QVQLVESGGGLVQAGGSLRLSCADSGRTFSYNTMGWYRQATGKERELVARITWGGGSTYYADSVKGRFTISRDNAKNTVYLQMNSLKPEDTAVYYCNADLRELSPWYWYSGEMDYWGQGTQVTVSS | low polyreactivity

Sequence | polyreactivity (PSR sort gate)
QVQLVESGGGLVQAGGSLRLSCADSGRTFTRYAMGWYRQAPGKERELVAAISYIGGGTYYADSVKGRFTISRDNAKNTVYLQMNSLKPEDTAVYYCAGYSRQAEYEYWGQGTQVTVSS | high polyreactivity
QVQLVESGGGLVQAGGSLRLSCADSGRTFVGNAMGWSRQAPGKERELVAAITSRTGSTYYADSVKGRFTISRDNAKNTVYLQMTSLTPEDTAVYYCATPYYQNVYSRKAYTYWGQGTQVTVSS | high polyreactivity
QVQLVESGGGLVQAGGSLRLSCADSGRTSRVYAMGWYRQEPAKERELVAAITWRGGNTYYADSVKGRFTISRDNAKNTVYLQMNSLKPEDTAVYYCAADPLSYGSWHGDSWGQGTQVTLSS | high polyreactivity
QVQLVESGGGLVQAGGSLRLSCADSGSIFAYYARGWYRQAPGKERELVAAISQSGGSTYYAYSVKGRFTISRDTAKNTVYLQMNSLKPEDTAVYYCAARFRYGYTGYRYDYWGQGTQVTVSS | high polyreactivity
QVQLVESGGGLVQAGGSLRLSCADSGSIFSYYAMGWYRQEPGKARELVASISRTGVSTHYADSVKGRFTISRDNAKNTVYLQMNSLKPEDNAVYYCNAKYLTWSYRYYYWGQGTQVTVSS | high polyreactivity
QVQLVESGGGLVQAGGSLRLSCADSGSIFVWNDMGWYRQAPGKEREFVAAITSRDGSTYYADSVKGRFTISRDTAKNTVYLQMTSLKPEDTAVYYCAARLRVTGFYSRTRYYWGQGTQVTVAS | low polyreactivity
QVQLVESGGGLVQAGGSLRLSCADSGSTFDYPMGWYRQAPGKERELVASITFSTGSTYYADSVKGRFTISRDNAKNTVYLQMNSLKPEDTAVYYCATGVDTYSLTVEHDSWVQGTQVTVSS | low polyreactivity
QVQLVESGGGLVQAGGSLRLSCADSGSTFNSYAMGWYRQAPGKERELVAAITHRGSTYYADSVKGRFTISLDNAKNTVYLQMNSLKPEDTAVDYCNVRRIGNGRRVDYWGQGTQVTVSS | high polyreactivity
QVQLVESGGGLVQAGGSLRLSCADSGSTFRRYAMGWYRQAPGKERELVAAISWSGGSTYYADSVKGRFTISRDNAKNTVYLQMKSLKPEDTAVYYCAARGVTSYWQDYDYWGQGTQVTVSS | low polyreactivity
QVQLVESGGGLVQAGGSLRLSCADSGSTFRRYTMGWYRQAPGKERELVASITRSGGSKYYADSVKGRFTISRDNAKNTVYLQMNSLKPEDTAVYFCNKLSGYGWRSYGYWGQGTQVTVSS | high polyreactivity
QVQLVESGGGLVQAGGSLRLSCADSGSTSYDYAMGWYRQAPGKERELVAAISGSSSTTYYADSVKGRFTISRDNAKNTVYLQMNSLKPEDTAVYYCNAVTTTGSGYGYWGQGTQVTVSS | low polyreactivity
QVQLVESGGGLVQAGGSLRLSCADSGSTSYRYAMGRYRQSPGKERELVAVITSGSSTYYADSVKGRFTISRDNAKNTDYLQINSLKPEDTAVYYCAVGRTYRRYSAASYNYWGQGTQVTVSS | high polyreactivity
QVQLVESGGGLVQAGGSLRLSCAGSGFTFGYYAMGWSRPAPGKERELVAAMSWNGGRTYYADSVKGRFTISRDNAKNTVYLQLNSLKPEDTAVYSCAADYRFYSPTKYSYDDWGQGTQVTVSS | high polyreactivity
QVQLVESGGGLVQAGGSLRLSCAGSGFTFIIYAMGWYREAPGKERELVAAITRSGGSTYYADSVKGRFTISRDNAKNTVYLQMNSLKPEDTAVYYCAAALSVRFYFWGQGTQVTVSS | high polyreactivity
QVQLVESGGGLVQAGGSLRLSCAGSGFTFSSYTIGWYRQAPGKEREFVASISSGGSTNYADSVKGRFTISRDNAKNTVYLQMNSLKPEDTAVYYCAAGTTGITFFDVGSGYDYWGQGTQVTVSS | low polyreactivity
QVQLVESGGGLVQAGGSLRLSCAGSGFTLGSNAMGWYRQAPGKERELVAVISGSGGSTYYADSVKGRFTISRDNAKNTVYLQMNSLKPEDTAVYYCAAQYSAGQYYGYGYWGQGTQVTVSS | high polyreactivity
QVQLVESGGGLVQAGGSLRLSCAGSGHIFRQYAMGWYRQAPGKERELVAAITSGGSTYYADSVKGRFTISRDNAKNTVYLQMNSLKPEDTAVYYCATRPGGDRPIGYDYWGQGTQVTVSS | low polyreactivity
QVQLVESGGGLVQAGGSLRLSCAGSGRIFDLYTMGWYRQAPGKERELVAAIRWSDGSTYYADSVKGRFTISRDNAKNTVYLQINSLKPEDTAVYYCAADTRTSYYNDDYDYWGQGTQVTVSS | low polyreactivity
QVQLVESGGGLVQAGGSLRLSCAGSGRILVQNDMGWYRQAPGNESELVAAIRSDGSTSYADSVKGRFTISRDNAKYTVYLQMNSLKPEDTAVYYCAARIDWTGGYYDYWGQGTQVTVSS | low polyreactivity
QVQLVESGGGLVQAGGSLRLSCAGSGRTFVYYAMGWYRQAPGREREFVAAISRSGGRTSYADSVKGRFTISRDNAKNTVYLHMNSLKPEDTAVNYCAAEKRTQPTSREYYWGQGTQVTVSS | high polyreactivity
QVQLVESGGGLVQAGGSLRLSCAGSGRTVANNAMGWYRQAPGKERELVAAISNGDSPYADSVKGRFTISRDNAKNTVYLQLNSLKPEDTAVYYCATRTQEDYTGDYWGQGTQVTVSS | low polyreactivity
